This data set is described as follows: soluble on expression in E. coli; label from the status in PepcDB or PDB records.
For the sequence “GPGSMEDAHMLVATDDADVAYFGIFDGHSNAECSAYVARELPQRLKKLPESITAEMLEKVCIEVDEAYMKTSTEGGTTGTFCVIRKDLTVTIANVGDSRILVCRGGKLIFATEDHKPYIPGETERIVACGGSVVSNRVDGDLAVSRAFGDASFKVKGTKDYRMQKVIAVPDVSVLQCEPNDFIILACDGVFEGNFSNEDVCQFVWEQQQNCWDDLAVVACRVCDEAIRCGSKDNISCLVVQLAEGASRVKAFGATSFVPGPPFPRNQQPCRAAYAQMAELGHTTTAAALQTRYQLLQAFSKNKLNSQPPVMRTAFEMSDEVDVETEWSFFGKGPAPGNEKNFFEALANTGNSS”, the “soluble on expression in E. coli” value is given as “not soluble”.

For the sequence “MKALALIAHDAKKDEMVAFCLRHKDVLARYPLLATGTTGARIQEATGLAVERVLSGPLGGDLQIGARVAEGKVLAVVFLQDPLTAKPHEPDVQALMRVCNVHGVPLATNLVAAEALIAWIRKGTPQ”, the “soluble on expression in E. coli” value is listed as “soluble”.

In the case of “MTTPSPQEISTVTLNSLSKEERKKAILALQTKKNEIKLVIDEHQKKLAEFRQSIPDGCCEMFENEKKIRLKHSSTAELLPHLQKVGSSSVDKEKMINNIRQRVEVQVADQETFKSIEERNELLRRENENLKKEVNTVAAELLQEFESYE”, the “soluble on expression in E. coli” value is reported as “not soluble”.

With “KKNLLYLGLTGYLLFALCTRLQAQTDSLQAHRYVTRATMYGVGFTNVFDTYLSPQEYKGIDFRISRETIRMTKLFDGNVSVQNFFQADVGYTHNRADNNNTFSGLVNWNYGLHYQFRLTENFKLLAGGLFDVNGGFVYNLRNSNNPASARAYVNLDASGMAIWHLKIKRYPMVLRYQVNVPMIGLMFSPHYGQSYYEIFSLGNSSGVIQFTSLHNQPSLRQMLSVDLPIGYTKMRFSYLADLQQSNVNGIKTHTYSHVFMVGFVKDLYRVSNKKGANLPPSVRAY”, the “soluble on expression in E. coli” value is listed as “not soluble”.

Take “MGSSHHHHHHSSGLVPRGSHMASMTGGQQMGRGSMNIAVVTDSTAYIPKEMREQHQIHMIPLQVVFREETYREEIELDWKSFYEEVKKHNELPTTSQPPIGELVALYEELGKSYDAVISIHLSSGISGTFSSAAAADSMVDNIDVYPFDSEISCLAQGFYALKAAELIKNGASSPEDIIKELEEMKKTVRAYFMVDDLAHLQRGGRLSSAQAFIGSLLKVKPILHFDNKVIVPFEKIRTRKKAISRIYELLDEDASKGLPMRAAVIHANREEEAAKIIEELSAKYPHVEFYNSYFGAVIGTHLGEGALGICWCFK”: the “soluble on expression in E. coli” value is “soluble”.

Turning to “MSLAEKKERIRFMTVDDVDAVVRVEEQTFTVPWSREAFINEVTNNQFARYVVYEVGEQIVGYCGVWVVYDESHITNIAIHPDYRGEKRGEALLRYILEFARLLGAKKLSLEVRISNEIAQRLYRKFGFQAGGIRKNYYTDNQEDALVMWVMLSEGHHHHHH”, the “soluble on expression in E. coli” value is reported as “soluble”.

“SLNAEEKKGLQRAIEEITEIAKGFGLDFYPMRYEICPAEIIYTFGAYGMPTRFSHWSFGKQFHKMKLHYDLGLSKIYELVINSDPCYAFLLDSNSLIQNKLIVAHVLAHCDFFKNNCRFQNTKRDMVESMAATAERIKHYEQVHGIKEVESFLDAILSIQEHIDPSLVRPKLQWSVDDEEEEIEEAATPYDDLWSLDEKKPKKQVKKSKKPFPPRPEKDILLFIEEHSRELEPWQRDILTMMREEMLYFWPQLETKIMNEGWASYWHQRIIRELDLTSDEAIEFAKLNAGVVQPSKTGINPYYLGLKIFEDIEKRYNNPTEEMKKMGVQPDSGREKMFEVREIESDISFIRNYLTKELVMREDLYLFAAAGRDYKIIDKQWKSVRDQLVSMRVNGGFPYLTVNDGDYMKNNELYIKHWYEGIELDLKYLEKVLPYLFQLWGRSVHIESVLEDKEVMFSYDGKGVHRRYL”: the “soluble on expression in E. coli” value was “soluble”.

For “MKRFNVLKYIRTTKANIQTIAMPLTTKPLSLKINAALFDVDGTIIISQPAIAAFWRDFGKDKPYFDAEHVIHISHGWRTYDAIAKFAPDFADEEYVNKLEGEIPEKYGEHSIEVPGAVKLCNALNALPKEKWAVATSGTRDMAKKWFDILKIKRPEYFITANDVKQGKPHPEPYLKGRNGLGFPINEQDPSKSKVVVFEDAPAGIAAGKAAGCKIVGIATTFDLDFLKEKGCDIIVKNHESIRVGEYNAETDEVELIFDDYLYAKDDLLKW”, the “soluble on expression in E. coli” value is “soluble”.

On to “MAHHHHHHMSSSEKKHAAWVDVVAGGFGGALAKSLLSPFQRIVVLQQLGQHKSYSIAQLVHHIYAQEGLKSFWRGNLTSMVIRVPYSGIQFLLYTQLKFLFQDWLDRRHAAAALPTHQADGSSDNS”, for which the “soluble on expression in E. coli” value is recorded as “soluble”.

Regarding “SNAKKVCVDTCVVIDGRITELIERGKLKDATIIIPEAVVSELEYQANMGREIGYKGIEELRKLIEKASEHNIKVEYYGERPTREEIFLAKSGEIDAMIRKVAKETNSILLTSDWIQYNLAKAQGIEAYFLEAAEEEVELVLD”, the “soluble on expression in E. coli” value was “soluble”.

As for “MTPPIAADYTAQAVSTDTIGYLHSTESGAGVDGPGMRFVFFVSGCQFRCLYCHNPDTWKLHNGRQVSVEQALSEVAPYARFLKFAGGVTISGGEPLMQHEFVGELFHEIKQRFGLHTALDTQGFLHERVSDAWFDDVDLVMLDIKHSDPEKYQALTGQPLQPTLDFALRLKRLRKKMWIRYVLVPGLTDGDADIEKLADFAASLGDVVERVEVLPFHQLGKDKWAQLGMEYQLNDTPIPTAEQAAHARALFASRGLKVTLEHHHHHH”, the “soluble on expression in E. coli” value is reported as “soluble”.

With “MSLTQPPQQAISAAHSELEQNHRVLLQLMDTLVSQIKDYSEDVEFNLQNDSTIKNTIVEILSFISRSNQKDQLSLKVSQAVVNSLFGSNESKLCRDVLSLLLEKLCSLSIVARKDVVWWLVYALDPRKFNVPVVRSLLEVNLINIAEFDAVLVTAMKNGMAGATEFSMNLIRDTVMADSPILMRLDFIRILGYLRTINTPEIKAFLEEYEQCRAVPVSKTTSITKVERYYLVFTEWVKLQQRVETDDVVNIVFIRQLFEKGVIDSKEKVIEFIKAALELSVNSFKQSDPTGEVFTSIDALSRLITSLLVVQELNVEERKEYLNLLLSVVTLVFAKDHQTNMTSFNERPYFRLYSSLLSDWDKLRDHHFIRVSDSVVRKSLIEFDQYFFDIFASFLHSYQPIAFPGFSFAWITLISHRMFLPKVLRSKELYGWDKLVLLLIDLMKFLSQYIKKDNVPDSISVIYKGALRIFLGISNDVPEFLIQNHYKLVKNVPPTCIQLRNIILSAIPKKMMIPDPFVSEITEDNCKDIPQVFYDPSQDLKSLKKPIINYLRIPSSSLLRTICGGMFRTELEYENGIGYDENNVDVNLIHAIVTHVAVEVGLEVEKASKNAVFNVKSSYYTLLFGLLSDGNDEVKFHIIQAMVNQLRYPNVHTHWFNFALKLMFQSDQWPDDQLSTIQEIILRSLLERIIVNKPHPWGVVVTFMDLLKLEGTKMIEKPFINDIPEIHAIMKNLQKYALTSSSEGHHHHHH”, the “soluble on expression in E. coli” value is listed as “soluble”.

In the case of “MKSSDRLFTGRSENYSKFRPSYPVGIVKMLTDKYGLKKEMVIADIGCGTGILARMFLENGNKVYCIDPNGEMLKFAKDELSSFGNAIIVRGSAENTGLEDHSVNVISAGQSFHWFDTDKAKVEFRRILTAPYMVVLIWNDRDIDDGFTAEYEKIVSAYGKNYQGTGSTGLPPDTIPQFFNWAYDYYQYQNYQELDLEGLKGRYLSTFYSITQEYPKFQAAMKALETAFNAFSVDGKVRIRYITKVFVGKLNPLEHHHHHH”, the “soluble on expression in E. coli” value is listed as “soluble”.

The values are drawn from the DeepSol protein solubility set.
